Experimental data published in patent publication CN117069840A (BEIJING BIOSYSTEMS BIOLOGICAL TECH CO LTD, dated 2023).
One block for each binder: values may come before it.

Tests used:
Assay in all cases: indirect ELISA, antigen coated at 1 μg/mL, hybridoma supernatant, HRP-anti-mouse IgG
[1] = molecular target: 人源GM-CSF蛋白 (human, UniProt P04141 18-144)
[2] = molecular target: T1, 人源TNF-alpha蛋白 (human, UniProt P01375 77-233)
T1 construct: also called TNF-α

[3] = molecular target: 人源IL-2蛋白 (human, UniProt P60568 21-153)
Sequence of 人源IL-2蛋白 (P60568 21-153 limits assumed): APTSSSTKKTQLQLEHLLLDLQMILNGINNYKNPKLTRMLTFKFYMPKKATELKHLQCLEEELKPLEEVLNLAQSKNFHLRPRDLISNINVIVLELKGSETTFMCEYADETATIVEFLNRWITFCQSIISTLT

[4] = molecular target: T2, 人源IL-4蛋白 (human, UniProt P05112 25-153)
T2 sequence (looked up): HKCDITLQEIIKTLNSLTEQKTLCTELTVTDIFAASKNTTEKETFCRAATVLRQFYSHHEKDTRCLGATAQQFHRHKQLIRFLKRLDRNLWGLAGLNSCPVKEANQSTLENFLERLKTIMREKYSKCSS

[5] = molecular target: 人源IL-6蛋白 (human, UniProt P05231 30-212)
[6] = molecular target: T3, 人源IL-7蛋白 (human, UniProt P13232 26-177)
T3 sequence (looked up): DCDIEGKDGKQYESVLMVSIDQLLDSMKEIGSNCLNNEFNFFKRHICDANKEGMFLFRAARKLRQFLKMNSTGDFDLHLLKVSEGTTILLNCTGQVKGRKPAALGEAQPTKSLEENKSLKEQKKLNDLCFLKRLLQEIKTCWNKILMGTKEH

[7] = molecular target: 人源IL-10蛋白 (human, UniProt P22301 19-178)
Sequence of 人源IL-10蛋白 (P22301 19-178 limits assumed): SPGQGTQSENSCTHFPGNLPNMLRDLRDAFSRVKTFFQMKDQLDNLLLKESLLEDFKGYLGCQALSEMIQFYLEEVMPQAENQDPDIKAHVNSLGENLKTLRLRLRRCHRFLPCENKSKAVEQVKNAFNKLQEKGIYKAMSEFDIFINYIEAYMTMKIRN

[8] = molecular target: 人源IL-15蛋白 (human, UniProt P40933 49-162)
Sequence of 人源IL-15蛋白 (P40933 49-162 limits assumed): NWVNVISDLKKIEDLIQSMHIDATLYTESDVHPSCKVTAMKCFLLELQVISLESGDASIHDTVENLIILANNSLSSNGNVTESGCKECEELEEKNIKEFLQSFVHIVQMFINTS

Sequence of 人源GM-CSF蛋白 (P04141 18-144 limits assumed): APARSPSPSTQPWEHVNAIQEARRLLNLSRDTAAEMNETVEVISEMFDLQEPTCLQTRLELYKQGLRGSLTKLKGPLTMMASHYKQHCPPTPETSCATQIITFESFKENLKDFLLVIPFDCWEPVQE
T1 sequence (P01375 77-233 limits assumed): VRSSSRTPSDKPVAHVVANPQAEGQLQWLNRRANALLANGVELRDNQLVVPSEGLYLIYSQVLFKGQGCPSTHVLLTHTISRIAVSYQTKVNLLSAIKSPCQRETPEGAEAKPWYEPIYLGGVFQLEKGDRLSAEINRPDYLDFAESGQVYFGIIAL

binding result [1]: no binding
binding result [2]: no binding
binding result [3]: no binding
binding result [4]: no binding
binding result [5]: no binding
binding result [6]: no binding
binding result [7]: no binding
binding result [8]: no binding
B1: 抗体13A6G6 (antibody, V domains shown)
VH: EVKLEESGGGLVQPGGSTKLSCAASGFTFSDAWMNWVRQSPEKGLEWIAEIRTKTSNHAAYYAASVKGRFTISRDDSKSSVYLQMNSLRPEDTGIYYCTRFDYWGQGTTLTVSS
VL: DVQITQSPSYLAASPGETITINCRASKNINKHLAWYHDKPGKTNKLLIYSGSTLQSGTPSRFSGSGSGTDFTLTISSLEPEDFAVYYCQQHNEYPYTFGGGTKLAIK
notes: Mouse monoclonal antibody from a hybridoma; also called Clone 13A6G6; 克隆号13A6G6

binding result [1]: no binding
binding result [2]: no binding
binding result [3]: no binding
binding result [4]: no binding
binding result [5]: no binding
binding result [6]: no binding
binding result [7]: no binding
binding result [8]: no binding
B2: 抗体3G6D7 (antibody, V domains shown)
VH: EIQLQQSGPELVKPGASVKVSCKASGYGFTSYNMNWVKQSHGKSLEWIGYIDPYNGGSGYNQKFKGKATLTVDKSSSTAYMHLISLTSDDSAVYYCARGDYDGGYYGMDYWGQGTSVTVSS
VL: DILLTQSPAILSVSPGESVSFSCRASQSVGTSIHWFQQRTNGSPRLLIKYASESISGIPSRFSGSGSGTDFTLIINSVESEDIADYYCQQSNGWPFTFGSGTKLEIK
notes: Mouse monoclonal antibody from a hybridoma; also called Clone 3G6D7; 克隆号3G6D7
